In IntAct's records for PubMed 17030804:

B1: Rab11 family-interacting protein 3 (Homo sapiens), O75154-1 (parent)
chain: MASAPPASPPGSEPPGPDPEPGGPDGPGAAQLAPGPAELRLGAPVGGPDPQSPGLDEPAPGAAADGGARWSAGPAPGLEGGPRDPGPSAPPPRSGPRGQLASPDAPGPGPRSEAPLPELDPLFSWTEEPEECGPASCPESAPFRLQGSSSSHRARGEVDVFSPFPAPTAGELALEQGPGSPPQPSDLSQTHPLPSEPVGSQEDGPRLRAVFDALDGDGDGFVRIEDFIQFATVYGAEQVKDLTKYLDPSGLGVISFEDFYQGITAIRNGDPDGQCYGGVASAQDEEPLACPDEFDDFVTYEANEVTDSAYMGSESTYSECETFTDEDTSTLVHPELQPEGDADSAGGSAVPSECLDAMEEPDHGALLLLPGRPHPHGQSVITVIGGEEHFEDYGEGSEAELSPETLCNGQLGCSDPAFLTPSPTKRLSSKKVARYLHQSGALTMEALEDPSPELMEGPEEDIADKVVFLERRVLELEKDTAATGEQHSRLRQENLQLVHRANALEEQLKEQELRACEMVLEETRRQKELLCKMEREKSIEIENLQTRLQQLDEENSELRSCTPCLKANIERLEEEKQKLLDEIESLTLRLSEEQENKRRMGDRLSHERHQFQRDKEATQELIEDLRKQLEHLQLLKLEAEQRRGRSSSMGLQEYHSRARESELEQEVRRLKQDNRNLKEQNEELNGQIITLSIQGAKSLFSTAFSESLAAEISSVSRDELMEAIQKQEEINFRLQDYIDRIIVAIMETNPSILEVK

Variants of: B1
Conditions: with rb11a_human RAB11A

Variant | effect of a mutation on the interaction
D739A | disrupting interaction strength
Y737S | disrupting interaction strength
M746S | disrupting interaction strength
E747A | decreasing interaction strength
